From patent US20260055194A1 (LYCIA THERAPEUTICS, published 2026)
Read-outs that look alike come from different tables or passages of the source.

Tests used:
[1] = biological target: human CI-M6PR on K562 cells (human, UniProt P11717 41-2491); assay: cell-based or functional assay
[2] = biological target: T1, Recombinant human M6PR ECD-His (human, UniProt P11717 41-2304); assay: Octet BLI; mIgG from hybridoma supernatant on anti-mouse biosensor, His-tagged human M6PR analyte
T1 construct: extracellular domain; also called recombinant His-tagged human M6PR; human M6PR antigen; not shown: His tag

[3] = biological target: T2, purified recombinant CI-M6PR (domains 1-9) protein (human, UniProt P11717 41-1365, limits assumed); assay: BLI (GatorPrime), antibody on anti-mouse IgG Fc sensor, CI-M6PR (domains 1-9) in solution, global 1:1 fit;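 also: human CI-M6PR tested at a range of concentrations against captured antibodies, measured at 30 °C, analyte diluted in PBS carrying Tween-20, BSA and NaN3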
T2 construct: domain: domains 1-9; also called human CI-M6PR; wild-type human CI-M6PR

[4] = biological target: T2, purified recombinant CI-M6PR (domains …); assay: ELISA on human M6PR, Abs 450nm, antibody about 0.0005-1 ug/mL
[5] = biological target: T2, purified recombinant CI-M6PR (domains …); assay: as above; remark: listed apart in the source
[6] = biological target: T2, purified recombinant CI-M6PR (domains …); assay: as above; remark: listed apart in the source
[7] = biological target: T2, purified recombinant CI-M6PR (domains …); assay: as above; remark: listed apart in the source
[8] = biological target: T2, purified recombinant CI-M6PR (domains …); assay: as above; remark: listed apart in the source
[9] = biological target: T2, purified recombinant CI-M6PR (domains …); assay: as above; remark: listed apart in the source
[10] = biological target: T2, purified recombinant CI-M6PR (domains …); assay: as above; remark: listed apart in the source

| Binder | Uptake pHrodo (MFI) [1] [MFI] | Kd [2] [nM] | Kd [3] [nM] | koff [3] [s⁻¹] | kon [3] [M⁻¹ s⁻¹] | EC50 (read off the curve) [4] [µg/mL] | EC50 (read off the curve) [5] [µg/mL] | EC50 (read off the curve) [6] [µg/mL] | EC50 (read off the curve) [7] [µg/mL] | EC50 (read off the curve) [8] [µg/mL] | EC50 (read off the curve) [9] [µg/mL] | EC50 (read off the curve) [10] [µg/mL] |
| --- | --- | --- | --- | --- | --- | --- | --- | --- | --- | --- | --- | --- |
| 08D8 (antibody, V domains shown, also called Clone # 84) VH: QVQLQQPGAELVKPGASVKLSCKASGYTFTSYWMQWVKQRPGQGLEWIGEIDPSDSYTNYNQKFKGKATLTVDTSSSTAYMQLSSLTSEDSAVYYCARGDYYGSSSWFAYWGQGTLVTVSA VL: DIVMTQAAPSVPVTPGESVSISCRSSKSLLHSNGNTYLYWFLQRPGQSPQLLIYRMSNLASGVPDRFSGSGSGTAFTLRISRVEAEDVGVYYCMQHLEYPFTFGAGTKLELK | 10900 | 259 | 351 | 0.00185 | 5250 | – | – | – | – | – | – | – |
| 06D1 (antibody, V domains shown, also called Clone # 11) VH: EVQLQQSGAELVRPGASVKLSCTASGFNIKDDYMHWVKQRPEQGLEWIGWIDPENGDTEYASKFQGKATITADTSSNTAYLQLSSLTSEDTAVYYCTTVAPGYYAMDYWGQGTSVTVSS VL: ENVLTQSPAIMSASPGEKVTMTCRASSSVSSSYLHWYQQKSGASPKLWIYSTSNLASGVPARFSGSGSGTSYSLTISSVEAEDAATYYCQQYSGFTFGSGTKLEIK | 22400 | 17.1 | 45.1 | 0.0111 | 245000 | ~0.01 | – | – | – | – | – | – |
| 06H10 (antibody, V domains shown) VH: EVQLQQSGAELVRPGASVKLSCTASGFNIKDDYMHWVKQRPEQGLEWIGWIDPENGDTEYASKFQGKATITADTSSNTAYLQLSSLTSEDTAVYYCTTVAPYYYAMDYWGQGTSVTVSS VL: QIVLTQSPAIMSASLGEEITLTCSASSSVSYMHWYQQKSGTSPKLLIYSTSNLASGVPSRFSGSGSGTFYSLTISSVEAEDAADYYCHQWSSYHTFGGGTKLEIK | 65800 | – | – | – | – | – | – | – | – | – | – | – |
| 03C7 (antibody, V domains shown, also called Clone # 85) VH: QVQLQQSGPELVKPGASVKISCKASGYSFTSYYIHWVKQRPGQGLEWIGWIYPGSGNTKYNEKFKGKATLTADTSSSTAYMQLSSLTSEDSAVYYCARMGSSYWYFDVWGTGTTVTVSS VL: ENVLTQSPAIMAASLGQKVTMTCSASSSVSSSYLHWYQQKSGASPKPLIHRTSNLASGVPARFSGSGSGTSYSLTISSVEAEDDATYYCQQWSGYPLTFGAGTKLELK | 41700 | 17.5 | 24.9 | 0.0154 | 618000 | – | – | – | ~0.01 | – | – | – |
| 06F1 (antibody, V domains shown, also called Clone # 67) VH: EVQLQQSGAELVRPGASVKLSCTASGFNIKDDYMHWVKQRPEQGLEWIGWIDPENGDTEYASKFQGKATITADTSSNTAYLQLSSLTSEDTAVYYCTNYYGSSPFDYWGQGTTLTVSS VL: QIVLTQSPAIMSAFLGERVTMTCTASSSVSSRYLHWYQQKPGSSPKLWIYSTSNLASGVPARFSGSGSGTSYSLTISSMEAEDAATYYCHQYHRSPLTFGAGTKLELK | 34200 | 17.3 | – | – | – | – | – | – | – | – | – | – |
| 11B12 (antibody, V domains shown, also called Clone # 75) VH: QVQLQQSGPELVKPGASVKISCKASGYSFTSYYIHWVKQRPGQGLEWIGWIYPGSGNTKYNEKFKGKATLTADTSSSTAYMQLSSLTSEDSAVYYCARGNWHWYFDVWGTGTTVTVSS VL: EIVLTQSPALMAASPGEKVTITCSVSSSISSSNLHWYQQKSETSPKPWIYGTSNLASGVPVRFSGSGSGTSYSLTISSMEAEDAATYYCQQWSSYPLTFGAGTKLELK | 43000 | 90.6 | 237 | 0.0112 | 47400 | – | – | – | – | – | – | – |
| 06D12 (antibody, V domains shown, also called Clone # 10) VH: QVQLQQSGAELMKPGASVKLSCKATGYTFTGYWIEWVKQRPGHGLEWIGEILPGSGSTNYNEKFKGKATFTADTSSNTAYMQLSSLTTEDSAIYYCAYTVVATDWYFDVWGTGTTVTVSS VL: ENVLTQSPAIMSASLGEKVTMSCRASSSVNYMYWYQQKSDASPKLWIYYTSNLAPGVPARFSGSGSGNSYSLTISSMEGEDAATYYCQQFTSSPWTFGGGTKLEIK | 47000 | 9.56 | – | – | – | – | – | – | – | – | – | – |

Now from value to binder:

| Uptake pHrodo (MFI) [1] [MFI] | Kd [2] [nM] | Kd [3] [nM] | koff [3] [s⁻¹] | kon [3] [M⁻¹ s⁻¹] | EC50 (read off the curve) [4] [µg/mL] | EC50 (read off the curve) [5] [µg/mL] | EC50 (read off the curve) [6] [µg/mL] | EC50 (read off the curve) [7] [µg/mL] | EC50 (read off the curve) [8] [µg/mL] | EC50 (read off the curve) [9] [µg/mL] | EC50 (read off the curve) [10] [µg/mL] | Binder |
| --- | --- | --- | --- | --- | --- | --- | --- | --- | --- | --- | --- | --- |
| 9980 | 43.1 | 62.2 | 0.000789 | 12700 | – | ~0.02 | – | – | – | – | – | 21D5 (antibody, V domains shown, also called Clone # 78) VH: QVQLKQSGPGLVQPSQSLSITCTVSGFSLTRYGVHWVRQSPGKGLEWLGVIWRGGSTDYNAAFMSRLSITKDNSKSQVFFKMNSLQADDTAIYYCAKEGTGILDSWGQGTTLTVSS VL: DIVLTQSPASLAVSLGQRATISCRASKSVSTSGYSYMHWYQQKPGQPPTLLIYLASNLESGVPARFSGSGSGTDFTLNIHPVEEEDAATYYCQHSRELPYTFGGGTKLEIK |
| 30800 | 5.27 | 6.33 | 0.00104 | 164000 | – | – | ~0.02 | – | – | – | – | 43C8 (antibody, V domains shown, also called Clone # 28) VH: EIQLQQSGPELVKPGASVKMSCKASGYTFTDYVISWVKQRTGQGLEWIGEIYPGSHTYYNEKFKGKATLTADKSSNTAYMQLSSLTSEDSAVYFCALTAGAMDYWGQGTSVTVSS VL: NIMMTQSPSSLAVSAGEKVTMSCKSSQSVLYSSNQKNYLAWYQQKPGQSPKLLIYWASTRESGVPDRFTGSGSGTDFTLTISSVHAEDLAVYYCHQYLSSYTFGGGTKLEIK |
| 36000 | 30 | 108 | 0.00872 | 81000 | – | ~0.01 | – | – | – | – | – | 45A12 (antibody, V domains shown, also called Clone # 36) VH: QVQLQQSGAELMKPGASVKISCKATGYTFSTYWIEWVKQRPGHGLEWIGEILPGSGSTNYNEKFKGKATFTADASSNTAYMQLSSLTSEDSAVYYCARDGGAMDYWGQGTSVTVSS VL: NIMMTQSPSSLAVSAGEKVTMSCKSSQRVLYSSNQKNYLAWYQQKPGQSPKLLIYWASTRESGVPDRFTGSGSGTDFTLTISTVQPEDLAVYYCHQYLSSRTFGGGTKLEIK |
| 13400 | 615 | – | – | – | – | – | – | – | – | – | – | 16H4 (antibody, V domains shown, also called Clone # 95) VH: QVQLKQSGPGLVQPSQSLSITCTASGFSLTSYGVHWVRQSPGKGLEWLGVIWSGGSTDYSAAFISRLSISKDSSKSQVFFKMNSLQADDTAIYYCARNLPITSYDPSSFYAMDYWGQGTSVTVSS VL: DIQMTQTTSSLSASLGDRVTISCSASQGISNYLNWYQQKPDGTVKLLIYYTSSLHSGVPSRFSGSGSGTDYSLTISNLEPEDIATYYCQQYSKLPFTFGSGTKLEIK |
| 12500 | 10.5 | 10 | 0.000454 | 45300 | – | – | – | – | ~0.01 | – | – | 17F11 (antibody, V domains shown, also called Clone # 55) VH: EVQLQQSGPELVKPGASVKMSCKASGYTFTDYNMHWVKQSHGKSLEWIGYINPNNGGTNYNQKFQGKATLTVNKSSRTAYMELRSLTSEDSAVYYCVRFYYGSRYYAMDYWGQGTSVTVSS VL: DIVMTQSPATLSVTPGDRVSLSCRASQSISDYLHWYQQKSHESPRLLIKYASQSISGIPSRFSGSGSGSDFTLSINSVEPEDVGVYYCQNGHSFPYTFGGGTKLEIK |
| 10400 | 8.74 | 13 | 0.000616 | 47200 | – | – | – | – | – | ~0.01 | – | 18G4 (antibody, V domains shown, also called Clone # 45) VH: EVKLMESGGGLVQPGASLRLSCAASGFTFTDYYMSWVRQPPGKAPEWLALIRNKANGYTTEYNASVKGRFTISRDNSQNILYLQMNTLRTEDSATYYCVRGGFAYWGQGTLVTVSA VL: QAVVIQESALTTSPGETVTLTCRSSTGAVTTSHYAIWVQEKPDHLFTGLIGGTNNRVPGVPARFSGSLIADKAALTITGAQTEDEAIYFCALWYTNQFIFGSGTKVTVL |
| 9700 | 2.59 | 3.44 | 0.000445 | 129000 | – | – | – | – | – | – | – | 53B11 (antibody, V domains shown, also called Clone # 33) VH: EVQLQQSGPELVKPGTSMKISCKASGYSFTDYTVNWVKQSHGKNLEWIGLINPYNGGTSYNQKFKGKATLTVDKSSSTAYMELLSLTSEDSAVYYCARWGYYYATSYYFAMDYWGQGTSVTVSS VL: DIQMNQSPSSLSASLGDTITITCHASQNINVWLSWYQQKPGNIPKLLIYKASNLHTGVPSRFSGSGSGTGFTLTISSLQPEDIATYYCQQGQSYPWTFGGGTKLEIK |
| 35800 | 12.2 | 184 | 0.0123 | 66700 | – | – | – | – | – | – | ~0.01 | 12D5 (antibody, V domains shown, also called Clone # 26) VH: QVQLQQPGAELVKPGASVKLSCKASGYTFTNYWMHWVKQRPGQGLEWIGMIHPNSGSTNYNEKFKSKATLTVDKSSSTAYMQLSSLTSEDSAVYYCARPHGYPFGYWGQGTTLTVSS VL: ENVLTQSPAIMSASLGEKVTMSCRASSSVNYMYWYQQKSDASPKLWIYYTSNLAPGVPARFSGSGSGNSYSLTISSMEGEDAATYYCQQFTSSPYTFGGGTKLEIK |
